Data reported in the domain aggregation screens of Martell et al. (2025).

Assay: soluble fraction after stress (log2 fold change); higher = more stays soluble; pooled small domains, quantitative proteomics
Conditions: stress: pH 4
How it was run: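 Aggregation propensity is read out as the fold change in how much of each domain remains soluble after acid stress. The custom small-domain libraries were pooled, held at pH 4 and analysed with high-throughput quantitative proteomics. On the log2 scale used, higher values mean more of the domain stayed soluble.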

In order of falling “soluble fraction (log2)” value:
1. HMKDSIQIPNVVGMTIKDAQSQYGKSFSIIEQNRTESTKPAGTILEQTPAGGDTVSKRDNIIIRVVVSLG  0.36
2. HMKEATTSPLDGIPGIGSKRKKALLSHFGSARSVARADIPDLMRVDGISRQVAETIYGWFHN  0.311
3. HMKDESQLVGAEGKAVTPLRPTGVALIGEKRLDVLTEGEFIPRNSDIIVSRVEGNKIIVKLKN  0.22
4. HMKEILVGVEPLSKKQIIIKKGIKGRSDYIIFEKKNYGLPENLKPEEVSIEIALKIIDEKKKRKA  0.22
5. HMKDHLRFEILSFAGDLRNGVVKTRQEFETIFAFYDKYEEIITALKVHNGYVDSEFDFIKEKFKELKSK  0.194
6. HMIYRTTSVPIDNISTQKFNLQEGWIEMNKNEVEDFIRQKNLELVVTDSNVMLDKFALNGDPNKFKVFKY  0.104
7. HMKALYHQLVDLLKKRMESGMIPHDKLPSERELTAQYGVSRTTVRLALQELENTGYIYRRHGKGTFVSDI  0.1
8. HMKALRNQDVVVGKPLAMAVYDQHGVLLLGRGHVVISESQRQQLLERGFSIDAEQLGRLRAAIEATQRV  0.0921
9. HMKADTSPEAQKKIIAAFEPYSVNKDQIEKLIQRRIDSITPAQVIRLRKILASLKDGMSSPEDWFE  0.076
10. HMKAKPTLLTPYEERLKGWLETDSRRPKRDRRTGLALFAKLQQEGFTGSYTRVTEYIRRWRDSGG  0.0729
11. HMKEDNPIVLINLQAKEGEWVFKGTGLPYVGKYHQHKNGEYMIGIGVLNLNHELKPDEIIIPNPNK  0.0576
12. HMIYKLIADRLKNRINSDEFEVGDALPSEKALAGELEVSVMTIRKALTLLESEKLIVKRHGSGSYVARKSN  0.0567
13. HMKEGTIPPVVNRTLSDAEFVLKSYGYELGRVSEQHSDMPKDIVIKQSPEAGTVADPGTRVDVVVSIGKA  0.0175
14. HMKANIGDQVFTQLKDQIINGEWRPGDRIPSEAQLIQLFGVSRGTVRQAVQKLAGEGLIVTRHGEGSFVQG  -0.0317
15. HMKDSKSALQEYALERKMGLPVYEVVDRSGPDHAPQFVIAVSLGEWRLEAKGASKRQAEQQAASLMLEEI  -0.0445
16. HMKALPSAEDVALARESGRVLSTVLQTRAETQQIDFHDDKGAVRSVTLPTTALRLLLDVLTEIGQGNAV  -0.161
17. HMKEILLITGKGLHSGQDDVYKSAQLSKLRYSVPEFIKSNLEISQLILSVETPLQKDGGDGALLIK  -0.192
18. HMKAQLQHIIGSNIKLARNTQGYTQEGLAERAEISVEHLKQVERGKKMLSVESLVNVANALQVSVDSLV  -0.205
19. HMKEFIPPVLDDVLKFFSGSLLPDWENQGRLFFSHYNSQGWRKGTGVQVTDWDSLANKWILDEKIKRDARS  -0.214
20. HMKAQVKSVLDDIPGIGQTRRKALMRYFKSLEKIREASVEELKEADAMNERAAQSVYAFFHK  -0.222
21. HMKEDFPLLEQLRYTGEGADVTGTAEKMESIQALRSAADSGGFRATLGDIQQIPGGGLRFTLSLRGSR  -0.226
22. HMKEHDTLALRLTAILRKLNDGEKLVPRELAEEFNVGIRTIQRDLTERLSFLDLEKTNGAYSLPTRNL  -0.36
23. HMKDYTIDDIINSKVEHPLGGYQSRFKVGEYEVSVVGGRQTNHGDFIHTFELAIFDKNNNFLRNLTPVTID  -0.411
24. HMKAQVKSVLDEIPGVGPTRRKALMKHFTSIEEIKQAEFETLLEAEGMNRAAAQSVYDFFHN  -0.491
25. HMKEEDYEVFMRLINVRGIGPKSALNILGVISGQEMIQAIENDDIKRLKSLPGIGAKTAGQIVLDLKGKFV  -0.705
26. HMKDLQAISERMEEIISFAKANDNEISLFIVQDIIKNKKTGIDEDLLNMALYQIKEQGIKVLPA  -1.05
27. HMKAERLLALLTILLSGKRVSARWLSEELEVSERTVYRDVEALSEAGFPVYATTGRDGGFSLIDGF  -1.18
28. HMKEIIFRGIGEFILDYKSLVIEFLNKNNYANLSMDAPVDEVNKAVANNMLNEDFVTELLLFQRRVE  -2.16
